Measurements published in article PMC6614449, “Targeting DNAJB9, a novel ER luminal co-chaperone, to rescue ΔF508-CFTR” (Scientific Reports, 2019).

B1: Na+/H+ Exchange Regulator Factor 1 (on the ProtoArray) (natural protein, UniProt O14745 1-358, looked up)
chain: MSADAAAGAPLPRLCCLEKGPNGYGFHLHGEKGKLGQYIRLVEPGSPAEKAGLLAGDRLVEVNGENVEKETHQQVVSRIRAALNAVRLLVVDPETDEQLQKLGVQVREELLRAQEAPGQAEPPAAAEVQGAGNENEPREADKSHPEQRELRPRLCTMKKGPSGYGFNLHSDKSKPGQFIRSVDPDSPAEASGLRAQDRIVEVNGVCMEGKQHGDVVSAIRAGGDETKLLVVDRETDEFFKKCRVIPSQEHLNGPLPVPFTNGEIQKENSREALAEAALESPRPALVRSASSDTSEELNSQDSPPKQDSTAPSSTSSSDPILDFNISLAMAKERAHQKRSSKRAPQMDWSKKNELFSNL
notes: NHERF1 (EBP50), protein spotted on the ProtoArray; also called NHERF1; EBP50; source: bought: spotted on ProtoArray protein microarray (Invitrogen / ThermoFisher)
B2: DNAJB7 (on the ProtoArray) (natural protein, UniProt Q7Z6W7 1-309, looked up)
chain: MVDYYEVLGLQRYASPEDIKKAYHKVALKWHPDKNPENKEEAERKFKEVAEAYEVLSNDEKRDIYDKYGTEGLNGGGSHFDDECEYGFTFHKPDDVFKEIFHERDPFSFHFFEDSLEDLLNRPGSSYGNRNRDAGYFFSTASEYPIFEKFSSYDTGYTSQGSLGHEGLTSFSSLAFDNSGMDNYISVTTSDKIVNGRNINTKKIIESDQEREAEDNGELTFFLVNSVANEEGFAKECSWRTQSFNNYSPNSHSSKHVSQYTFVDNDEGGISWVTSNRDPPIFSAGVKEGGKRKKKKRKEVQKKSTKRNC
notes: DNAJB7, protein spotted on the ProtoArray; source: bought: spotted on ProtoArray protein microarray (Invitrogen / ThermoFisher)
B3: DNAJB8 (on the ProtoArray) (natural protein, UniProt Q8NHS0 1-232, looked up)
chain: MANYYEVLGVQASASPEDIKKAYRKLALRWHPDKNPDNKEEAEKKFKLVSEAYEVLSDSKKRSLYDRAGCDSWRAGGGASTPYHSPFDTGYTFRNPEDIFREFFGGLDPFSFEFWDSPFNSDRGGRGHGLRGAFSAGFGEFPAFMEAFSSFNMLGCSGGSHTTFSSTSFGGSSSGSSGFKSVMSSTEMINGHKVTTKRIVENGQERVEVEEDGQLKSVTVNGKEQLKWMDSK
notes: DNAJB8, protein spotted on the ProtoArray; source: bought: spotted on ProtoArray protein microarray (Invitrogen / ThermoFisher)

Target: T1, full length FLAG-CFTR (WT-CFTR) (UniProt P13569 1-1480)
T1 construct: Cystic Fibrosis transmembrane-conductance regulator (CFTR), wild type, 1,480 amino acids; Surface CFTR was probed with anti-FLAG on fixed cells, so the FLAG tag may lie in an extracellular loop; also called FLAG-WT-CFTR; Cystic Fibrosis transmembrane-conductance regulator; source: HEK293 cells stably expressing it; purified on anti-FLAG resin (ProtoArray) or in whole-cell lysate (co-IP)
T1 sequence (P13569 whole entry): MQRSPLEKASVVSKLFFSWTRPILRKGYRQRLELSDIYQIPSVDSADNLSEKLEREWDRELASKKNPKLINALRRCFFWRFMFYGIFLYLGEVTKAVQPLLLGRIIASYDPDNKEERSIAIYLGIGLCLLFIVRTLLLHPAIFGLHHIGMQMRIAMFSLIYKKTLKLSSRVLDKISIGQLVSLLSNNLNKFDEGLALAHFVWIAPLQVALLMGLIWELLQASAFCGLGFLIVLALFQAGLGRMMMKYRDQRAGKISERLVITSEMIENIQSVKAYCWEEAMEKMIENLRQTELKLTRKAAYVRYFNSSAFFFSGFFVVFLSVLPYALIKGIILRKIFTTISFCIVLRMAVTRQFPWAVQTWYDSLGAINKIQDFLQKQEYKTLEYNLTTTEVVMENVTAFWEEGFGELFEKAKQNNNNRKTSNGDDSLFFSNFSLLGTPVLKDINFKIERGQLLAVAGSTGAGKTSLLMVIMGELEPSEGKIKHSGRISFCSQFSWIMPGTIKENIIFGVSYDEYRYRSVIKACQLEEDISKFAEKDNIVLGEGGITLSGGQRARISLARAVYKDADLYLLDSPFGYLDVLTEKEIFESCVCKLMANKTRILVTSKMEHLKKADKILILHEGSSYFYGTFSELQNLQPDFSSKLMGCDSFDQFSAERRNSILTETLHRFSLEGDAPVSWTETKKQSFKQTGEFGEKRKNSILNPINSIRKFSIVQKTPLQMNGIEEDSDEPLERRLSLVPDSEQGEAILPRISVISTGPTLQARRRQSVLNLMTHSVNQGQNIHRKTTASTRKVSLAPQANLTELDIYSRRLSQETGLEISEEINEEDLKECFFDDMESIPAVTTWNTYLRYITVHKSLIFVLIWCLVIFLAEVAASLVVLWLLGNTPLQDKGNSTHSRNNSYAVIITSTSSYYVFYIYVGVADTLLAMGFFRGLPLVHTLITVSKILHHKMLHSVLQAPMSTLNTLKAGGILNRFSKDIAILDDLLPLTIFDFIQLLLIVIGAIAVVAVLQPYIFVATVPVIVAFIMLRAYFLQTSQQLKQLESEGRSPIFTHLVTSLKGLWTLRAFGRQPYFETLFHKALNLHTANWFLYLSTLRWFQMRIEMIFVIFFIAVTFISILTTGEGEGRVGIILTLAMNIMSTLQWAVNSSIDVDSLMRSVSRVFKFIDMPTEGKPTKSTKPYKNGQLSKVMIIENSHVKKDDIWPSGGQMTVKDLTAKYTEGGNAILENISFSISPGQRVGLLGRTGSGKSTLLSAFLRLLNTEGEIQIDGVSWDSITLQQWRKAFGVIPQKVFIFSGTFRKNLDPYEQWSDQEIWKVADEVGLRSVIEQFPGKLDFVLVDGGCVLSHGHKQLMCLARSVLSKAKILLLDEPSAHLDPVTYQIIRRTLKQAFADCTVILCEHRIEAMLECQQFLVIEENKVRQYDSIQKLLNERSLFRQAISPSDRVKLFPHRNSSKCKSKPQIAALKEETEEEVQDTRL
Test: peptide or protein array; ProtoArray protein microarray (Invitrogen / ThermoFisher) probed with purified full length FLAG-CFTR in solution; bound CFTR detected with mouse anti-FLAG monoclonal antibody and Alexa-488 secondary antibody, fluorescence scanner; mean of duplicate
Conditions: both partners purified

| Binder | binding result |
| --- | --- |
| B1 | binds |
| B2 | binds |
| B3 | binds |
